Publication PMC3305813 (Neuron, 2012)

Key:
[1] = target: CYSL-1 (Caenorhabditis elegans, UniProt Q93244, R259K); experiment: O-acetylserine sulfhydrylase assay; format: biochemical; settings: co-substrate sulfide
[2] = target: T1, recombinant CYSL-1 (C. elegans, UniProt Q93244 1-341); experiment: other fluorescence titration
T1 sequence (looked up): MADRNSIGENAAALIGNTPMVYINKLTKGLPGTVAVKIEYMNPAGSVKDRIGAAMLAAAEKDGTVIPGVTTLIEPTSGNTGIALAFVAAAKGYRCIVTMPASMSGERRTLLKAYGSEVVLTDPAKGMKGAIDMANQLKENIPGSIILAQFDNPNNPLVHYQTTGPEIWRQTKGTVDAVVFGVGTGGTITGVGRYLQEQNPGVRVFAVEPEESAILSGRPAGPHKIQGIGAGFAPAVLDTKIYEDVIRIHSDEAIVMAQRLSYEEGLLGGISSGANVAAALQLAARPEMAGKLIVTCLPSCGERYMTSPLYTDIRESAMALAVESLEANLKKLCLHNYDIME

Chain of CYSL-1 (Q93244 whole entry R259K): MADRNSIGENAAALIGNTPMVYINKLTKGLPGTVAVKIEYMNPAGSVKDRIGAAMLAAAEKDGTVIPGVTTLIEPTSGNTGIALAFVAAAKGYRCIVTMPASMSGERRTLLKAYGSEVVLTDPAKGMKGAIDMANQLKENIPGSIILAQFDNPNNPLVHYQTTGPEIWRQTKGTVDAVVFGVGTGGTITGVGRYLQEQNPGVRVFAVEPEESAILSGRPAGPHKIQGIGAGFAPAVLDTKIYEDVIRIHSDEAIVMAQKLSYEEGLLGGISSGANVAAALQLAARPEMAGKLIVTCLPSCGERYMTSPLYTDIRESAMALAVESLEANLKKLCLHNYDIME

In the case of CC(=O)OC[C@H](N)C(=O)O [OAS], the O-acetylserine sulfhydrylase assay [1] is reported as “exhibited levels of OAS sulfhydrylase activity similar to that of wild-type CYSL-1”.

PPSTNPEYYI (peptide, UniProt G5EBV0 714-723, looked up) [EGL-9 C-terminal peptide, last 10 residues]: binds [2].

GLPPPPSTNPEYYI (peptide, UniProt G5EBV0 710-723, looked up) [EGL-9 C-terminal peptide, last 14 residues]: binds [2].
